From article PMC5291005, “Listeria monocytogenes 10403S Arginine Repressor ArgR Finely Tunes Arginine Metabolism Regulation under Acidic Conditions” (Frontiers in Microbiology, 2017)
Values joined by “and” are separate entries in the source; they are usually repeats but may differ in a detail not shown here. Equal values may be shown once.

Target: the molecule itself
Assay: cross-linking; purified N-terminal His6-ArgR cross-linked with various amounts of glutaraldehyde (multimers at 0.05%) in 50 mM HEPES pH 8.0, 150 mM KCl, 1 mM L-arginine, with or without 1% beta-mercaptoethanol, room temperature, 2 h; 10% SDS-PAGE, Coomassie staining

B1: Listeria monocytogenes 10403S arginine repressor ArgR (natural protein, UniProt B8DFW1 1-149, looked up)
chain: MNKGHRHIIIRELITSNEIDTQEDLVELLLERDVKVTQATVSRDIKELHLVKVPTQTGGYKYSLPADNSFNPHQKLKRALIDCFIGIDNVQFMIILKVMPGNGNSVGALIDNLDWPEKAGTICGDDTCLIICRSEENAKTLTDRFIDML
notes: ArgR, arginine repressor of the ArgR/AhrC family, Listeria monocytogenes strain 10403S; full-length ORF amplified from the 10403S genome; the his-tagged protein runs at about 23 kDa; also called recombinant ArgR; his-tagged ArgR protein; not shown: His6, N-terminal, kept
stoichiometry N: 3 and 6
